Test results: paper PMC6778065, “BIN1 recovers tauopathy-induced long-term memory deficits in mice and interacts with Tau through Thr^348 phosphorylation” (Acta Neuropathologica, 2019)
Square brackets hold non-standard residues; d marks the D form. Ends that are not written are not given here. pT = C[C@@H](OP(=O)(O)O)[C@H](N)C(=O)O

T1: BIN1-SH3 domain (UniProt O00499 520-593)
T1 construct: SH3 domain of BIN1 (Amphiphysin 2); residue 559 lies in it (isoform 1 numbering); 15N-labelled for NMR; also called 15N-BIN1 SH3
T1 sequence (looked up): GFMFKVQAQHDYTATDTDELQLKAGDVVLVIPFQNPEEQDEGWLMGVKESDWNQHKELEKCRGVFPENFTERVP


Experiments:
[1] = biological target: T2, human Tau (MAPT transgene, hTau mouse hippocampus) (human, UniProt P10636-8 1-441); experiment: proximity ligation; PLA in fixed hippocampal brain slices of 18-month-old control, hTau and hTau;TgBIN1 mice; primary antibodies BIN1-99D or α-tubulin DM1A (mouse) and Tau (rabbit); PLA spot density per tissue area; conditions: partners not purified
T2 construct: human Tau from the human MAPT transgene Tg(MAPT)8cPdav; source: transgenic mouse (hTau; hTau;TgBIN1; no endogenous murine Mapt), hippocampus, fixed brain slices
T2 sequence (P10636 other isoform, or with tags, fused parts or gaps): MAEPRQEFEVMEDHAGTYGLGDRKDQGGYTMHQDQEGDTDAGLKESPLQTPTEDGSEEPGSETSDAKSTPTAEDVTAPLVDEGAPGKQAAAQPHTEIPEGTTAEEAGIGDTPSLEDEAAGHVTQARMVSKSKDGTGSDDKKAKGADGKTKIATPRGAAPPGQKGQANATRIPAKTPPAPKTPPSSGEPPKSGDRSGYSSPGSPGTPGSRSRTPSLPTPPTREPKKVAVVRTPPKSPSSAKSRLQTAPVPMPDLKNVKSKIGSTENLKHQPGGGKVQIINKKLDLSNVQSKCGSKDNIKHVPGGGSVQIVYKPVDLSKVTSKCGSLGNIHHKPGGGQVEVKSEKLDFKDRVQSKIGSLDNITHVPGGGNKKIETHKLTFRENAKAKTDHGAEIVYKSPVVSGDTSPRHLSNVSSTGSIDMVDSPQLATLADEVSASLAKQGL

[2] = biological target: T1, BIN1-SH3 domain; experiment: NMR titration; 100 µM 15N-labeled BIN1-SH3 domain titrated with aliquots of 4 mM unlabeled peptide; 1H-15N HSQC chemical shift changes fitted to the saturation equation; 20 °C, 50 mM sodium phosphate pH 7.3, 30 mM NaCl, 3 mM DTT, 10% D2O; conditions: both partners purified

| fold PLA spot density against control mice [1] [fold] | fold PLA spot density against hTau mice [1] [fold] | Kd [2] [µM] | Binder |
| --- | --- | --- | --- |
| 6.2 | 2.7 |  | human BIN1 (transgene, hTau;TgBIN1 mouse hippocampus) (natural protein, UniProt O00499 1-593, looked up, human BIN1 expressed under the control of its own promoter; endogenous mouse Bin1 is present in the same tissue; also called hBIN1; Amphiphysin 2; source: transgenic mouse (hTau;TgBIN1), hippocampus, fixed brain slices) MAEMGSKGVTAGKIASNVQKKLTRAQEKVLQKLGKADETKDEQFEQCVQNFNKQLTEGTRLQKDLRTYLASVKAMHEASKKLNECLQEVYEPDWPGRDEANKIAENNDLLWMDYHQKLVDQALLTMDTYLGQFPDIKSRIAKRGRKLVDYDSARHHYESLQTAKKKDEAKIAKPVSLLEKAAPQWCQGKLQAHLVAQTNLLRNQAEEELIKAQKVFEEMNVDLQEELPSLWNSRVGFYVNTFQSIAGLEENFHKEMSKLNQNLNDVLVGLEKQHGSNTFTVKAQPSDNAPAKGNKSPSPPDGSPAATPEIRVNHEPEPAGGATPGATLPKSPSQLRKGPPVPPPPKHTPSKEVKQEQILSLFEDTFVPEISVTTPSQFEAPGPFSEQASLLDLDFDPLPPVTSPVKAPTPSGQSIPWDLWEPTESPAGSLPSGEPSAAEGTFAVSWPSQTAEPGPAQPAEASEVAGGTQPAAGAQEPGETAASEAASSSLPAVVVETFPATVNGTVEGGSGAGRLDLPPGFMFKVQAQHDYTATDTDELQLKAGDVVLVIPFQNPEEQDEGWLMGVKESDWNQHKELEKCRGVFPENFTERVP |
|  |  | 71 ± 13 | QLRKGPPVPPPPKHTPSKEVKQ (residues 334-355 of the CLAP domain of BIN1 isoform 1 (neuronal isoform); unlabeled peptide, 4 mM stock solution) [CLAP (334-355) peptide] |
|  |  | 736 ± 70 | QLRKGPPVPPPPKH[pT]PSKEVKQ (residues 334-355 of the CLAP domain of BIN1 isoform 1 (neuronal isoform), phosphorylated on T348; unlabeled peptide, 4 mM stock solution; also called phospho-CLAP (334-355)) [phospho-T348 CLAP (334-355) peptide] |
